Laboratory results as given in the supplement of paper PMC9170038.

System: MS2 coat protein
Test: apparent KD of MS2 coat protein; designed switch direction (-1 OFF switch, 1 ON switch): -1; higher = weaker reporter binding
Outline: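 The buffer was Tris-HCl pH 7.5 with KCl, MgCl2, BSA, DTT, tRNA and Tween-20. In it, SNAP-549-labelled MS2 coat protein was titrated in doubling steps from 0.7 or 1.5 nM to 3 µM over chip-bound RNA switches transcribed by stalled E. coli RNA polymerase on Illumina chips. Apparent KD is the per-design median over clusters of curve fits to normalised fluorescence.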

[1] = input ligand: microRNA oligo, concentration not stated
[2] = Eterna round: R95, input ligand: FMN 200 uM
[3] = Eterna round: R95, input ligand: microRNA oligo, concentration not stated
[4] = Eterna round: R95, input ligand: none

Sequence | apparent KD of MS2 coat protein (input ligand: FMN 200 uM) [nM] | apparent KD of MS2 coat protein (input ligand: none) [nM] | apparent KD of MS2 coat protein [3] [nM] | also measured
GUGCAGCGAGGAUAUACAGACGGGUCCAGUACGUGUCUUGGACUUGAGGAUCACCCAAGUAGAAGGCGUCUCAG [salish99_ex2_r4_609] (Eterna round: R97, puzzle: Exclusion 2) | 35.4 | 36.8 |  | 
CGGUCGUCCUCAGGAUAUACAUGAGGAUCACCCAUGUUUCUAGGAUCGGUCGUCCGGUCGGUGGUGUAGAAGGGAGGGUGGCUG [random 2, A 18%] (Eterna round: R96, puzzle: Exclusion NG 2) | 159 | 43.6 |  | apparent KD of MS2 coat protein [1]: 37.1 nM
UAUAUAUAGUAAGGAUAUGUAUUUAUUUUACAAACAGAAGGUACUGACAUGAGGAUCACCCAUGUUUUAGUGUGGGCAUGUAGA [JMF's solution 24] (Eterna round: R96, puzzle: Exclusion NG 1) |  |  |  | apparent KD of MS2 coat protein [1]: 48.8 nM
AGCUGUGGCCGAGGAUAUGACAUGAGGAUCACCCAUGUACGUAAUUAGGCCUGGUAACAGGCUCGUCAGAAGGCGGUCUCAGCA [Eli eng2 - 008] (Eterna round: R96, puzzle: Exclusion NG 2) | 12.2 | 15.3 |  | apparent KD of MS2 coat protein [1]: 7.43 nM
UUUUUAUAUGAAGGAUAUACUUAACAUGAGGAUCACCCAUGUGGUGUUGUGAGUGAGUGAGUUUAGUAGAAGGUCAGUUCUUUU [JMF's solution 79] (Eterna round: R96, puzzle: Exclusion NG 2) | 414 | 611 |  | apparent KD of MS2 coat protein [1]: 497 nM
GUACUGAAGCAUAGCUUUAGUCGUACAUGAGGAUCACCCAUGUAGGAUAUGGUAGGCUUUGCUUACUAGAAGGAUAGAGUGAUC [Mat - Exclusion NG 3 - Mod of JL - D71] (Eterna round: R96, puzzle: Exclusion NG 3) | 157 | 109 |  | apparent KD of MS2 coat protein [1]: 86.8 nM
AGUAACCGUCACGAAAGUGAUGGUUACACAAGUAAAUGUACAUGAGGAUCACCCAUGUCCUCAUUUGCUCGUCUUAU [Sensor 3 - 46] (puzzle: Sensor v3, turn-off variant 2) |  |  | 373 | apparent KD of MS2 coat protein [2]: 152 nM; apparent KD of MS2 coat protein [4]: 230 nM
UUUUUAUAUGAAGGAUAUACUUAACAUGAGGAUCACCCAUGUGGUGUUGUGAGUGAGUGAGUUUAGUAGAAGGUCAAUUAUCUU [JMF's solution 14] (Eterna round: R96, puzzle: Exclusion NG 2) | 699 | 373 |  | apparent KD of MS2 coat protein [1]: 309 nM
AGUGCUGGCGCGUCGGUGUUGGUACAAUAAGCUUGUGAAACAUGAGGAUCACCCAUGUCCUCAUAAGCUCGUCUUAU [salish99_TOv2_r2_084] (puzzle: Sensor v3, turn-off variant 2) |  |  | 553 | apparent KD of MS2 coat protein [2]: 17.6 nM; apparent KD of MS2 coat protein [4]: 16.9 nM
AAUAUCACAGGAUAUCCGGAUUUGUACAUGAGGAUCACCCAUGUGGUGACGUAGAACUCCGGAGAAGGGUGUCCAG [Eternabot (L2) Solution 89] (Eterna round: R97, puzzle: Exclusion 5) | 29 | 161 |  | 
CAGUUCUGACGGAGAUCCAACAUGAGGAUCACCCAUGUCUCAAAAGCUUUUUGCUCGUCUUAUCCUCCUCAGGACUC [Mat - Sensor, turn-off var - Eli Mod - D58] (Eterna round: R97, puzzle: Sensor, turn-off variant 1) | 16.4 | 16.4 |  | 
UAUUAGCAAGUAAGAUCCCACAUGAGGAUCACCCAUGUGCUCGUCUUAUAAGGUACUGUGACGAAAGUCACGGUACC [Sensor 3, v1 - 95 v1] (Eterna round: R97, puzzle: Sensor, turn-off variant 1) | 18.3 | 19.2 |  | 
UAAGAAUACUGAGGAUAUGCUAGUUUAUCUCAAGCAGAAGGCGGACUCAACAUGAGGAUCACCCAUGUAAGACGGGUACUAGAU [Ex NG1 #13] (Eterna round: R96, puzzle: Exclusion NG 1) | 319 | 832 |  | apparent KD of MS2 coat protein [1]: 59 nM
GAUAUAGAGCAGGAUAUCUUAGAUAUGUAAUAAAGAGAAGGGCUCACAUGAGGAUCACCCAUGUGGUCCUAGAU [JL Dibiri mod 13] (puzzle: Exclusion 6) |  |  | 20.7 | 
GAGGAGCAAGGAUAUACGAGGAUAUGGAAGGUUGGAGAGUGACAUGAGGAUCACCCAUGUAGAAGGUGCGAGGG [JR_Exclu2_Sub097] (puzzle: Exclusion 2) |  |  | 43.4 | 
UUUUUGUGAGGAUAUGGAAUAUCUUCUAUUUAUUAUUAAUUCCAGAAGGCACAUGAGGAUCACCCAUGUAUUUU [Ex4 - 3 - 35] (puzzle: Exclusion 4) |  |  | 20.7 | 
UAAGAAUACCGAGGAUAUGGUAGUACAUAUUUACCAGAAGGCGGACUCAACAUGAGGAUCACCCAUGUAUAAAGGGUAUUAGGU [JR_ExcNG1_Sub043] (Eterna round: R96, puzzle: Exclusion NG 1) | 94.1 | 64.3 |  | apparent KD of MS2 coat protein [1]: 58.3 nM
CAGACACAUGAGGAUCACCCAUGUGAGGAUAUGCGUACGUUGUCCGUAGGCGACGUGCGCAGAAGGCGCAUAGG [JL-ex1-3.11 Eli mod] (puzzle: Exclusion 1) |  |  | 74.3 | apparent KD of MS2 coat protein [2]: 51.7 nM; apparent KD of MS2 coat protein [4]: 50.1 nM

Sequence | apparent KD of MS2 coat protein (input ligand: FMN 200 uM) [nM] | apparent KD of MS2 coat protein (input ligand: none) [nM] | apparent KD of MS2 coat protein [3] [nM] | also measured
AAUAACAAGCAAGAUCCUAACAUGAGGAUCACCCAUGUGCUCGUCUUAUAAAGUACUAUCACGAAAGUGAUAGUACA [Sensor 3, v1 - 45] (puzzle: Sensor v3, turn-off variant 1) |  |  | 306 | apparent KD of MS2 coat protein [2]: 470 nM; apparent KD of MS2 coat protein [4]: 420 nM
GGCAGUACAGAGGAUAUCUGGACCUACAGGAAUAGAGAAGGUUGUACAUGAGGAUCACCCAUGUCGACACUCAG [Eternabot (Original) Solution 11] (Eterna round: R97, puzzle: Exclusion 6) | 13.2 | 13.7 |  | 
CAGACGGCCGUAGGAUAUGCAGCAAAGACGUGAGCAGAAGGACGAUACAUGAGGAUCACCCAUGUACGUGGGUAGUGCGCAUGC [Veustean] (Eterna round: R96, puzzle: Exclusion NG 1) | 19.8 | 20.8 |  | apparent KD of MS2 coat protein [1]: 14.4 nM
AGUAACAGAGGAUAUACUAUUUUAUGUGUUUGUUGUUUUAAACAUGAGGAUCACCCAUGUAGAAGGCUGAAUAA [JMF 88] (puzzle: Exclusion 2) |  |  | 19 | 
AAUUCACAUGAGGAUCACCCAUGUCAGGAUAUGGUUUCACGUGUUUCUUUGCUUGAGGCCAGAAGGGACAGCUA (puzzle: Exclusion 1) |  |  | 67.2 | 
AAACUGUGAGGAUAUGCACGGGCCCUCUUAAUAAAACCAAAACAUGAGGAUCACCCAUGUAGAAGGCACACAUA [EX2 A.24] (Eterna round: R97, puzzle: Exclusion 2) | 53.5 | 543 |  | 
GGAUCGAGUGUGAGGAUAUGCUGGUCCUUGGAUCAGCAGAAGGCACAUGAGGAUCACCCAUGUGAAGACGGUCC [JL bmx4 3.16] (Eterna round: R96, puzzle: Brourd's mod of Exclusion 4) |  |  |  | apparent KD of MS2 coat protein [1]: 25.9 nM
UGGAGGUGAGGAUAUACAUGAGGAUCACCCAUGUGGUGAAGUAGAGAGUAGUGGAGUGGUAGAAGGCACGAGUA [Version #1] (Eterna round: R97, puzzle: Exclusion 3) | 702 | 352 |  | 
CCUCUACAUGAGGAUCACCCAUGUGAGGAUAUAAGAUUGCGGAUUCCGCACUACGGUCUUAGAAGGCGCGUGGA [Texebibia] (puzzle: Exclusion 1) |  |  | 17.2 | 
UUAUACGUUGAGGAUAUGCGACUGUUUUAAGUUGUAGAAGGCGAUACAUGAGGAUCACCCAUGUUUAUGGGCAU [LRO-Ex6-12] (puzzle: Exclusion 6) |  |  | 169 | 
AGCAGACGAGGAUAUAGAUUUGAUAACAUGAGGAUCACCCAUGUGAUCGAUAGAUCAGAUUUAGAAGGCGUCUGCU [E5/8-A1] (Eterna round: R97, puzzle: Exclusion 5) | 412 | 525 |  | 
CCUUUGUCAGGAUAUCAGAACGCGCUCGUAGGGAGCGCGAAUGAGAAGGGACAUGAGGAUCACCCAUGUAAAGA [Soedes] (puzzle: Exclusion 4) |  |  | 74.3 | 
GAAUAGGCAGGAUAUACAUGAGGAUCACCCAUGUGCUUGCGCUAGGCACGUGAACAACGUAGAAGGGCCUAGAC [ChP 13.04.2015 #11] (puzzle: Exclusion 3) |  |  | 12.1 | 
AGUGCGUAUGUGAGGAUAUGCUGGUCCUUGGCUCGGCAGAAGGCACAUGAGGAUCACCCAUGUGGUGUCGUACC [salish99_Bmod_ex4_059] (puzzle: Brourd's mod of Exclusion 4) |  |  | 25 | 
GGAUCGAAAGUGAGGAUAUACCACUGGAUACAGUGGUAGAAGGCACAUGAGGAUCACCCAUGUCCUUACGAUCC [Fiskers BMX 4 - 48] (puzzle: Brourd's mod of Exclusion 4) |  |  | 20.5 | 
GACGAGGGAGGAUAUGCACGAGGGAUAUCUGACAUGCCUAUACAUGAGGAUCACCCAUGUAGAAGGCCCAGAUA [Veorleerma] (puzzle: Exclusion 2) |  |  | 11.9 | 
GCCGUAAGUGUGAGGAUAUACCUAUGGAAACAUAGGUAGAAGGCACAUGAGGAUCACCCAUGUCCUUAAUCGGC [Mat - Exclusion 4 - Eli Mod - D4] (Eterna round: R97, puzzle: Brourd's mod of Exclusion 4) | 366 | 224 |  | 
UUUUAGAGAGGAUAUAUAUUGUGAAACAUGAGGAUCACCCAUGUAAUAAUAUGGAUGAAAAUAGAAGGCUCAUUUA [Mat - Exclusion 5 - JL mod - D7] (puzzle: Exclusion 5) |  |  | 62.7 | apparent KD of MS2 coat protein [2]: 52.1 nM; apparent KD of MS2 coat protein [4]: 73.6 nM
